We go through three molecules from article PMC11407766, “OsNF-YB7 inactivates OsGLK1 to inhibit chlorophyll biosynthesis in rice embryo”.

The target in one series is T1, OsGLK1-MBP (Oryza sativa, UniProt Q5Z5I4 1-455).
T1 sequence: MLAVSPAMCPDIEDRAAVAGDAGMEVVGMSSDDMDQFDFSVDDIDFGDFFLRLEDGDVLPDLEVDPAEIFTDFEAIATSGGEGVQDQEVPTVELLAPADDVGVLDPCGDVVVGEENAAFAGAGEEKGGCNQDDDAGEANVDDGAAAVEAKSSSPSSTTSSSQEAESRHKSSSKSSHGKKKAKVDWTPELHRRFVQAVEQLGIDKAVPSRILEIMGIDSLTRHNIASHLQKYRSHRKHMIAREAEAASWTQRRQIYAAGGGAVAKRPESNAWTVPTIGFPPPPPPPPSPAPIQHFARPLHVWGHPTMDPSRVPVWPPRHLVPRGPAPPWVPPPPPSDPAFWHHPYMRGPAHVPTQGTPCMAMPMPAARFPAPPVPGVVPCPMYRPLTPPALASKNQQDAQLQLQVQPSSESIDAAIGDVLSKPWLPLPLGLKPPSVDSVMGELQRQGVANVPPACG
The series is described as follows: EMSA; Beyotime EMSA/Gel-Shift kit (GS009), manufacturer's conditions; 2 or 4 uM protein in Figure 6G; buffer, salt, pH and temperature not stated. The settings on record: protein: recombinant; tags: MBP (pMAL-c5X); label: biotin (3' hydroxyl end of both strands); blunt.

In the next series the target is T2, OsNF-YB7-His (Oryza sativa, UniProt A6BLV7 1-254).
T2 sequence: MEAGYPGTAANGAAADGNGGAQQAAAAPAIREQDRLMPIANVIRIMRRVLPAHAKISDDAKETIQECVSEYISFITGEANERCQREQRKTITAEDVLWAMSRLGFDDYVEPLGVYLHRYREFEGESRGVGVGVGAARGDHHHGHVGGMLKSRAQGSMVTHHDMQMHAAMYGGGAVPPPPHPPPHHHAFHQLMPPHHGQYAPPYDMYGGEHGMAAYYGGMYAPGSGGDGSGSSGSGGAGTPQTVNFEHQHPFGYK
The description is as above. The settings on record: protein: recombinant, tags: His (pET-28a), blunt.

Setting [1] is: label: biotin (3' hydroxyl end of both strands).

B1: OsLHCB4 promoter probe (dsDNA)
DNA 1: CCCAATCCCAGCCCTCCACGTGTCACCAACCCCATGGC
DNA 2: GCCATGGGGTTGGTGACACGTGGAGGGCTGGGATTGGG
On to B1, for which the binding result in the series with OsGLK1-MBP and with OsNF-YB7-His (setting [1]) was “binds” in each case.

B2: OsGLK1 promoter probe (dsDNA)
DNA 1: TTTTGCAGAAGCGACCAAGCTGCACTTGCGCTCGCGGACAAGGCAACCCA
DNA 2: TGGGTTGCCTTGTCCGCGAGCGCAAGTGCAGCTTGGTCGCTTCTGCAAAA
On to B2, for which the binding result with OsNF-YB7-His (label: biotin) is “no binding”.

B3: OsPORA promoter probe (dsDNA)
DNA 1: TACGAAAAAATATCCCACCACGTGTCGCTTTCACAGGACAAT
DNA 2: ATTGTCCTGTGAAAGCGACACGTGGTGGGATATTTTTTCGTA
Take B3: the binding result with OsGLK1-MBP and with OsNF-YB7-His (setting [1]) was “binds” each time.
